Test: soluble on expression in E. coli; label from the status in PepcDB or PDB records

| Sequence | soluble on expression in E. coli |
| --- | --- |
| MSLPKIIPAIMAGGRGTRLWPLSRATAAKQFLKLIGEETLFQDTLKRVSDAKVYGAPLVITNEEFRFLVAEQARELGVTLSSIVLEPVPRNTAAAVAVAARIVADRFGEDALLLVLPSDHAITVDDTYKKCVRSACIAAAEGKLVTFGIQPTWPATGYGYIERGTYLGKDVHAVQCFVEKPSLEKAAALLETGNYYWNSGMFLFQAASIIAELEEHAPDVLSAVHAAVRGSTVDADFIRLAPESFSQAPSISIDYALMEKTANAAVVCSDFAWSDLGSWDAVWKNEEQNADGNVLKGNVTACNTKNSLVLSHTAHLAVQGMDGVAVIASEDAVFVGRLEEAHEIGNLVKRLAADENTARLTELHPTLIRPWGGYTTMLNGDRFQVRRLFVRPGKMLSLHKHFHRSEHWICVKGTAEVTIEDRVTILHENQSIYIPEGAIHRLGNPGKIMLELVEIQTGAYLGEDDIIRVADESRNEMPDSREGHHHHHH | not soluble |
| MSLQDESPLLIITDSALVRDALVTHISETRRLLIADSHDVGMELALSFRPALILLDASSTDGEALALLRAFRSEPHLDDTFILVLSDEAAVLERLEASRAGADDFLRLPVDQAELTARVAVALRQARLSRRLRAYTRRIEEEMRLVADLQMRLLPAYTPYLASLRIDSFYQPSTEASGDYFDHFLLPGEDRLRVVIADASGHGARSAVLMTMVRTLFHASHAANTPLTDMLLEINTNLLDVVGNEPDFVTLFAADLDLRGNTLRYVNAGHCPALLRHPDGTTMRLSGTTPRLGFFGVRETERLVPFTPGTRLLLYTDGFHDCATASGRRLGIDRFLSLAEATMRRGGDVLSSLREDISTTFGEPPTWPDDVTALYIERKEEGHHHHHH | soluble |
| MSLQEKQLKTIQNKIASWIKEIESAFIDELFSKIGPSKMLRSKLMLALLNEKTDAILLDKAFNLCAIVEMIQTASLLHDDVIDKAAMRRKLPSINALFGNFNAVMLGDVFYSKAFFELSKMGESIAKSLSNAVLRLSRGEIEDVFVGGSFNSDKQKYWRILEDKTAHFIEASLKSMAILLNKDAKMYADFGLNFGMAFQIIDDLLDITQDAKTLGKPNFSDFKEGKTTLPYLLLYEKLNQRDQGLLISYFKQDSHEIIEWTKEKFKQYGTIEETLKIAQVYSKKALEAIKGENNLILEKLAQDVIYRTFEGHHHHHH | soluble |
| MSLQIAGKVVVVTGGGNGIGQALCEAFHKAGAAKVVVADLDQARAEAVAASIGGAAFKCDVANEADIKHVIEETERQFGPIDLFCSNAGIGGGFDPMAENAGGASDEPFMKSWMIHVMAHVYAARHLVPRYRARGGGYFLNTISAAGLLSQVGSPAYSATKHGAVGFAESLAIAHKAHNIRVSILCPQGVDTNMLRSIPKGPQSADGDLTAEQVAKDALQGIEQETFLILPHPQVIDYMRKKTEGHHHHHH | soluble |
| MSLQIIEPDNLIKEGDLRSIRAKTLQSARGIISDRNGEALAVSVPVEAVWADPVAIYKEGGLVEKDRWYALADVLGLDRQEMMKKIEDNRSRRFIYLQRQVSPAMAKYIRELKLAGIGLKEESRRYYPAGEVSAHLVGVTGIDGHGLEGVERSFDSTLTGESGKSVTRKDKFGRVVENIALEEREEGKPIQLTIDQRLQAIAFRAVKQAMADYRATSASAVMLDVKTGAVLAMVNAPSYNPNNRNDWQSFKMRNRVITDAFEPGSTVKPFVVLAALANGIADKNTIIDTGDGTMQIGGSRVRDTSKVGKADLTLILKKSSNIGVAKLALEMPLEALLGMYSSVGLGEMSGLDLVGETIGIFPNRRRWSQFEIATLSFGYGLAITPIQLAHAYATLGNHGKYQPIHIIKGDQHGETRQVVDPKYVNQVLEMLETVTQPGGTATRAAVPGYRIAAKSGTSRKAIAGGYSDEYFAYTAGVAPVSDPRISLVVMVNEPQGDSYYGGAVAGPVFSEIMKGALQILNIAPDENRFQNEGHHHHHH | soluble |
| MSLQITGVNQYHLEHRLEEPFHPTWIPGYPQSTHELELFEIETDAGITGYGASPSFAGGLDYETPLELFLTGEDPHNVDGILGKLETVNLVGPRPWHIEMALWDIIGKDAGKPVCELFGAEQRAIPAYASSGEIQPADERIDYVEQRIDEGFDAVKLRVTETDHIETVRAVRESFPDLTLMVDANKGWAVRVMEEPTEWSFSDALEFARELDAVGGVEWLEEPLHRHDYDGYARLRDAVDVNIAGGEFNNGIHHFREFVDRGSLDILQPDAALATGIRRAVDVARMGEANGLQFVPHTWTNAVGFAANLHVMTAVGSPWCEYPMEPPWTPDVWSFMLEDGFEHDDGVVRAPSKPGLGIEIPDKVLEDAGEGHHHHHH | soluble |
| MSLQLRHNRTLLENLADRQTMALQQFVDGDIHFIGSAANFFRSSTSDDWVRFHTFAEETLKGSQSLIALQWLVKVEPPQAETFTARMQQRFPEFTLYTVPKTGEIKYGFGTDDQAKYVLSDIYPLNYDNRKLLGFYSERERFKRILADIVVNRRPNVSDKVRLLQDGIDKSIVKDGMLVYHPVFSSEDDRSLLGVMVGVVRLSTYFEKLVQISVMEQDLDMRVIDTGFDSEDSPVLYQSPMWRADDEPKIERKLVLPNRDWVLEFELHQPINHSEELEHHHHHH | soluble |
| MSLQSLIGLMRPETGKKLENLNHFIQQFEKVLIAFSGGVDSSTLAAVCSNAGVEVLAVTVLSSVSPRREMEEAKRIAEELGVRHEFLKIDLMDEDFRRNDENRCYYCKRRVLSALVEEAKKRGIEVVLEGTNASDLSDHRPGYRAVRELDGVNSPWVEFGITKEEIREIARSMGYSFHDKPSMACLASRIPFGIEIDEEKLKMVDEAEEAVIELAGVKQVRVRNYDGVAVVEVAGDELRKLLNCAEKVRDKLKKIGFRAVLIDLEGYRSGKRLFKFEGHHHHHH | soluble |
| MSLRANCLVQTTEWSACSKTCGMGISTRVTNDNASCRLEKQSRLCMVRPCEADLEENIKKGKKCIRTPKISKPIKFELSGCTSMKTYRAKFCGVCTDGRCCTPHRTTTLPVEFKCPDGEVMKKNMMFIKTCACHYNCPGDNDIFESLYYRKMYGDMAEGHHHHHH | not soluble |
| MSLRAQSTNTIGVLVSRISNPFFAQLFDALERELNGYGFQVMVMQTHDDALAEQHFLDKLKQQQVDGVILASIENQQLVAQLSATYANQMVLLNEEATDIGIPMISLNHYQATKDALAYLYHQGHRRIAYATGGDFPSTHHGRSRTQAYLDFCEEQQLVVNNNWVFAQQHTIADGQALGKQLASLNPSDRPTAVFTNSDEVAVGVIDELQQQHFRVPDDMAVMGYDDQPFAAVAQVPLTTVRQPVAAMAQLAVDQLLHHLGRLQRPELAIDLSLDLIKRKSAEGHHHHHH | soluble |
| MSLRAYIPIDKYSLPEKFEIPLGNTNYIFEVDYNQTEKFFTVDLYDIDHTPIAIGERMVIDERLWQDIVDTRLPSADLVPMDESGASKEITFENFGIQVFLYIDDLPPNYNVPSLEREDN | not soluble |
| MSLRDTQTQLRNEMIYSVFVRNYSEAGNFAGVTADLQRIKDLGTDILWLLPINPIGEVNRKGTLGSPYAIKDYRGINPEYGTLADFKALTDRAHELGMKVMLDIVYNHTSPDSVLATEHPEWFYHDADGQLTNKVGDWSDVKDLDYGHHELWQYQIDTLLYWSQFVDGYRCDVAPLVPLDFWLEARKQVNAKYPETLWLAESAGSGFIEELRSQGYTGLSDSELYQAFDMTYDYDVFGDFKDYWQGRSTVERYVDLLQRQDATFPGNYVKMRFLENHDNARMMSLMHSKAEAVNNLTWIFMQRGIPLIYNGQEFLAEHQPSLFDRDTMVADRHGDVTPLIQKLVTIKQLPLLRAADYQLAVVEEGIVKITYRAAGEALTAWIPLKGQVTAVATKLAAGSYQNLLTDGPTEVVDGKLTVDGQPVLIKYVTNTAVTKVADQSNEGHHHHHH | soluble |
| MSLRIAIQGCSHGSLAQIYDVVNYYSSQTKNPIDLLLLCGDFQALRSKHDYASLAVPAKFKQLGSFHQYYSGERVAPVLTIVIGGNHEASNYMWELYHGGWLAPSIYYLGAAGSVYMNGLRIVGASGIYKGFDYRKGHFEKVPYNDKELRSIYHIREYDVEKLMHLTPSPSTIFLSHDWPTTIAHHGNKNALLKRKPFFRDENTLGSPPLLRLMNHFQPSYWFSAHLHVKFAALYEHQAPSHGPDVDGGAPLPLPAMSTAIAQTGNEGHHHHHH | not soluble |
| MSLRKLYTKELSVTGSAINHHRIFDSSAHFKGALTIKILPENTAMFNPLHESYCLPMDTNLFKINSIDVPIRINSTEEIEYIELEYRDLYTNSVELRSLSKKDFKIIDNPKSFLKKDQSVLKSHSNDFEEGSTIRYLAVTLQDIGFYQIKKIVDSKKLNLKIHQSHLVVPYCPIASITGTGSNDRCIGDSDNVSFEIQGVPPMKLAYSKIVNGQTFSYVDSSLQPEYFESPLQSSKSKQSFTQGELNDLKWGRNQPVNINLDSSITQDGKFAYKIDKITDGLGNVVDFTSLPEELKKREGHHHHHH | soluble |
| MSLRLADFGFTDGINEIIAITENEDGSWNAAPIGIIVEDSSSDTAKAKLYRNRTRANLERSGVLFANVTDDALVFAVSSFGNLNDDWYASPNPPIIKGAMAWCRFEAEMRSGVAHLKLTDGEIIEKRVRAINRGLSAVIEALVHATRYVAIKSDERRKELLERIHYYREIVQKCGSEREKRAFEIIMEKIGEGHHHHHH | soluble |
| MSLRQDILLNNNWNFRFSHQVQGDTRRVDLPHTWNAQDALAGKIDYKRGIGNYEKALYIRPEWKGKRLFLRFDGVNSIADVFINRKHIGEHRGGYGAFIFEITDLVKYGEKNSVLVRANNGEQLDIMPLVGDFNFYGGIYRDVHLLITDETCISPLDYASPGVYLVQEVVSPQEAKVCAKVNLSNRAADGTAELQVLVTDGTKVICKESRNVSLKQGADILEQLPLLIQKPRLWNGCEDPFMYQVSISLHKDGKQIDSVTQPLGLRYYHTDPDKGFFLNGKHLPLHGVCRHQDRAEVGNALRPQHHEEDVALMREMGVNAIRLAHYPQATYMYDLMDKHGIVTWAEIPFVGPGGYADKGFVDQASFRENGKQQLIELIRQHYNHPSICFWGLFNELKEVGDNPVEYVKELNALAKQEDPTRPTTSASNQDGNLNFITENIAWNRYDGWYGSTPKTLATFLDRTHKKHPELRIGISEYGAGASIYHQQDSLKQPSASGWWHPENWQTYYHMENWKIIAERPFVWGTFVWNMFDFGAAHRTEGDRPGINDKGLVTFDRKVRKDAFYFYKANWNKQEPMIYLAEKRCRLRYQPEQTFMAFTTAPEAELFVNGVSCGKQKADTYSTVVWKNVKLTSGENIIRVTTPGKKPLTDEVTVEYKEDREGHHHHHH | soluble |
| MSLRSTLAGTVRTQQGEIYLNGDADWSQIENWRARVTAKGSKVRITVPPMVRMDVSPDVVFEATPNLFTLDGRVDVPWARIVVHDLPESAVGVSSDVVMLNDNLQPEEPKTASIPINSNLIVHVGNNVRIDAFGLKARLTGDLNVVQDKQGLGLNGQINIPEGRFHAYGQDLIVRKGELLFSGPPDQPYLNIEAIRNPDATEDDVIAGVRVTGLADEPKAEIFSDPAMSQQAALSYLLRGQGLESDQSDSAAMTSMLIGLGVAQSGQIVGKIGETFGVSNLALDTQGVGDSSQVVVSGYVLPGLQVKYGVGIFDSIATLTLRYRLMPKLYLEAVSGVDQALDLLYQFEFEGHHHHHH | soluble |
| MSLRTSGSRLNSVRCASALTISGWKNNCVIEFDASGRIQSLREDSQSDVDLDLKGTVIAGIPNLHSHAHQKVITGLTEHRIAGQDDFWGWRELMYRANARLDPEQLQTIARYLYIDMLQKGYTSVAEFHYLHHQPDGTPYADLSEMSAQLLEAASEAGIAITLLPVLYCRGGFKDEPVQDSQHRFFNNPERYLALLESCHSLCANNPDRSLGFAAHSLRAVSPSAMSSTIEAAGPMLEGAPIHIHVAEQMREVNDCIEINGARPVAWLYDQCDVNDRWCLVHATHVDPQEQALLAQSGAIVGLCPTTEANLGDGIFPAAELMTNNGFLGVGSDSQVCTSPAEELRLLEYSQRFSLQRRTVLVPDEAGSNGRALTTAAIIGGNRARGEPLAGLQPGARGDLVEIGSDHVEFAGRSPDQVLDTWIFSGPDNPVQNVVAGGRHVVHDGVHPAMESASRAYREMVNALDLSEGHHHHHH | soluble |

— the DeepSol protein solubility set
